This is an account of results in patent publication US20250136681A1.

This experiment deals with IL-2 receptor (human). The experiment in a line: cell-based or functional assay.

The substance wild type recombinant IL-2 (ligand) yielded an EC50 of pSTAT5 increase on CD56brightCD16- NK cells (intracellular flow cytometry, human PBMCs) of 0.06 nM.
